The target of this test is Unc45b^Flag, bacteria expressed and purified (mouse) (UniProt Q8CGY6). As to the kind of experiment: pull-down; apparent; skeletal MD::GFP synthesized in the coupled assay, incubated with 0-2000 nM Unc45b^Flag 1 hr at 25°C, then anti-Flag beads 1 hr at 25°C; silver stain and autoradiography.

These results are taken from article PMC2377097.

Chain of Unc45b^Flag, bacteria expressed and purified (mouse) (Q8CGY6 whole entry): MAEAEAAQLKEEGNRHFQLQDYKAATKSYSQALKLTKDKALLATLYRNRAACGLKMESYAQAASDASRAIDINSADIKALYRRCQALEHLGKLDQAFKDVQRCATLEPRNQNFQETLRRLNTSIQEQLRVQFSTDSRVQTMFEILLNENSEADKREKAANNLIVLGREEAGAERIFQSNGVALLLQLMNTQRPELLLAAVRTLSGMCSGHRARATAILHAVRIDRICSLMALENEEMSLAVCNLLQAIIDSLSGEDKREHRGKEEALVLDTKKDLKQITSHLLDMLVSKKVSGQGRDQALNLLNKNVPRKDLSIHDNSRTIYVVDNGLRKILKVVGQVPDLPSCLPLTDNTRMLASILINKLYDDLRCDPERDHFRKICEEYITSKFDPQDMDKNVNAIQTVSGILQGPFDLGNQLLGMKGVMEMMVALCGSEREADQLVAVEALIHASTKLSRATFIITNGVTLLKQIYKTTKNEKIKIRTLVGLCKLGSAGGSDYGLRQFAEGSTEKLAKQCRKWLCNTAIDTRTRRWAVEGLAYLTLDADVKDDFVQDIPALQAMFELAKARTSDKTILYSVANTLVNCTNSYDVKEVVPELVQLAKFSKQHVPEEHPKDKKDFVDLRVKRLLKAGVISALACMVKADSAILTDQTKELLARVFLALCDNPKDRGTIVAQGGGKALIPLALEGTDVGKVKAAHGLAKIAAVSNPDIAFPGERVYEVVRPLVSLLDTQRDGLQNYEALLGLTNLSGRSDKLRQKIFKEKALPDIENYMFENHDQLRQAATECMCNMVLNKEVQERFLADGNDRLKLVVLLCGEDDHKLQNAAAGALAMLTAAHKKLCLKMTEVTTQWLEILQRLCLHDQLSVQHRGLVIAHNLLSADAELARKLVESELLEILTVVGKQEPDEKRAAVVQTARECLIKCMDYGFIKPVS

“skeletal muscle MD::GFP chimera (Sk795GFP) (domain or fragment)”: the Kd was 0.51 µM.
